What was measured:
TtSlyDcas = biological target: T1, TtSlyDcas; experiment: SPR Biacore T200, antibody captured, 25 C
T1 construct: scaffold without hairpin insert, negative control
T1 chain: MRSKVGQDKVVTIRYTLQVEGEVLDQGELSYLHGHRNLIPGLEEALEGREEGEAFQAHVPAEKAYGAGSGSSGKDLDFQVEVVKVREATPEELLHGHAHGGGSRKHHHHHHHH
Description: (§1) A Biacore T200 instrument (GE Healthcare) was mounted with a CMS series sensor. The sensor was normalized in HBS-ET buffer (10 mM HEPES pH 7.4, 150 mM NaCl, 3 mM EDTA, 0.05% w/v Tween 20) according to the manufacturer's instructions. The sample buffer was the system buffer supplemented with 1 mg/ml CMD (Carboxymethyldextran, Sigma #86524). The system operated at 25° C. 6500 RU RAM-Fcγ (relative units of Fcγ-fragment RamIgG, GE Healthcare) were immobilized according to the manufacturer's instructions using amine coupling EDC/NHS chemistry on all four flow cells. The sensor was deactivated using 1M ethanolamine. […] Concentration dependent kinetics were measured. […] All analytes were injected for 5 min association time and 10 min dissociation time at 100 μl/min flow rate. The sensor capture system was regenerated by a 3 min injection at 10 μl/min of 10 mM glycine pH 1.7. Where possible kinetic data was evaluated using the Biacore T200 evaluation software.

HER3 ECD-HRG complex = biological target: T2, HER3 ECD-HRG complex (human, UniProt P21860 20-643); experiment: SPR Biacore T200, antibody captured, 25 C
T2 construct: HER3 ECD preincubated with a 3- to 6-fold molar excess of Heregulin ('open' conformation); biotinylated Her3-ECD in the ribosome display; also called HER3-ECD/HRG1β
Description: as §1

HER4 ECD-HRG complex = biological target: T3, HER4 ECD-HRG complex (human, UniProt Q15303 26-651); experiment: SPR Biacore T200, antibody captured, 25 C
T3 construct: HER4 ECD preincubated with a 5-fold molar excess of Heregulin
T3 sequence 1: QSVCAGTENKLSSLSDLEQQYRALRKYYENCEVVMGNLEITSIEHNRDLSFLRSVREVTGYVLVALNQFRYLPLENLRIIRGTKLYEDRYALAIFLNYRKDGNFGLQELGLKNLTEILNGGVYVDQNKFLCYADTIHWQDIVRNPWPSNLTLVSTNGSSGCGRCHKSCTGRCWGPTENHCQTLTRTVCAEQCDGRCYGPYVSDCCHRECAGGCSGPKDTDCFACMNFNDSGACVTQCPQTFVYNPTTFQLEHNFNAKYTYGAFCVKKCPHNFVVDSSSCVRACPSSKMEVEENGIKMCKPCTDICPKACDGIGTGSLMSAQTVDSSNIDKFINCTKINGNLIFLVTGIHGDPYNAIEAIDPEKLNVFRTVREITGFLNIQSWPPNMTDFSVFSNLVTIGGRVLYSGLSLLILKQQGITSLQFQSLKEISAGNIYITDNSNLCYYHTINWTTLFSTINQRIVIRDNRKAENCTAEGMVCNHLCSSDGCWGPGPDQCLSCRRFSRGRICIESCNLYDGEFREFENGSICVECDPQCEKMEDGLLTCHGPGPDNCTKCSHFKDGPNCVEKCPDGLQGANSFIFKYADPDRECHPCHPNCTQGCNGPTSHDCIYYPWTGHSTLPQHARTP
T3 sequence 2: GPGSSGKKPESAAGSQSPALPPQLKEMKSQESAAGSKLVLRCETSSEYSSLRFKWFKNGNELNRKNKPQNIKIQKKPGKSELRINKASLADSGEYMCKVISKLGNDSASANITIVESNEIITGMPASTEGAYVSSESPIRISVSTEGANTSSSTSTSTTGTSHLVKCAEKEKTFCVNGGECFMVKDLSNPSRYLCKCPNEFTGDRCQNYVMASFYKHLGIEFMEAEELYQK
Description: as §1

[1] = biological target: T4, human HER1 Extracellular Domain (ECD) (human, UniProt P00533 25-645); experiment: SPR Biacore T200, antibody captured, 25 C
T4 construct: also called Her1 ECD; HER1-ECD
Description: as §1

[2] = biological target: T5, human HER3 Extracellular Domain (ECD) (human, UniProt P21860 20-643); experiment: SPR Biacore T200, antibody captured, 25 C
T5 construct: human recombinant, 68 kDa; 'closed' conformation without ligand; also called Her3 ECD; Her-3 ECD
Description: as §1

TtSlyDcys-Her3 = biological target: T6, TtSlyDcys-Her3; experiment: SPR Biacore T200, antibody captured, 25 C
T6 chain: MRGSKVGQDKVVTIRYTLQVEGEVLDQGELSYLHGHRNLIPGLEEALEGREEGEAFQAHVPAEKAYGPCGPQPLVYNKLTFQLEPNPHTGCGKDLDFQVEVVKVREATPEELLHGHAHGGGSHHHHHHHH
Description: as §1

[3] = biological target: T7, human HER4 Extracellular Domain (ECD) (human, UniProt Q15303 26-651); experiment: SPR Biacore T200, antibody captured, 25 C
T7 construct: also called Her4 ECD; HER4-ECD
T7 sequence: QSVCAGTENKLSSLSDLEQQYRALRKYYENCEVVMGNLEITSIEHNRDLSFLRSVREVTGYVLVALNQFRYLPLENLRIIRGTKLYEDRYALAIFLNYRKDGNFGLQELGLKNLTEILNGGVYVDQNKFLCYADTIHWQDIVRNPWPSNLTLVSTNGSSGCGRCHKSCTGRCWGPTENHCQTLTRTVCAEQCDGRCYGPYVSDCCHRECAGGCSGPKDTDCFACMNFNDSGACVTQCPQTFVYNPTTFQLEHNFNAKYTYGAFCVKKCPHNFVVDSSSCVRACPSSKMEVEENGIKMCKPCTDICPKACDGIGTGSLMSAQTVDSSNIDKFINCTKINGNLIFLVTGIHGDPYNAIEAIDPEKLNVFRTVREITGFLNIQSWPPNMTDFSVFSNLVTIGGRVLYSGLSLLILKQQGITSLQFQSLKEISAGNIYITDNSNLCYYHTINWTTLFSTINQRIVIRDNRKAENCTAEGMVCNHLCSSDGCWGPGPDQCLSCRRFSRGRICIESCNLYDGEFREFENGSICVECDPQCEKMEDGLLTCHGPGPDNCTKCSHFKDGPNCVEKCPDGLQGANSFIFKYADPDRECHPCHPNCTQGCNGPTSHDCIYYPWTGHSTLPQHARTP
Description: as §1

[4] = biological target: T7, human HER4 Extracellular Domain (ECD); experiment: SPR Biacore T100, antibody captured, 25 C; SPR at 25 C, antibody captured, HER4-ECD without HRG
Description: A CM5 series sensor was mounted into the system and was normalized in HBS-ET buffer (10 mM HEPES pH 7.4, 150 mM NaCl, 3 mM EDTA, 0.005% w/v Tween 20) according to the manufacturer's instructions. The sample buffer was the system buffer supplemented with 1 mg/ml CMD (Carboxymethyldextran, Sigma #86524). The system operated at 25° C. 6500 RU RAM-Fcγ (relative units of Fcγ-fragment RamIgG, GE Healthcare) were immobilized according to the manufacturer's instructions using EDC/NHS chemistry on all four flow cells. The sensor was deactivated using 1M ethanolamine.
The binding activity of the respective antibody against the analytes was kinetically tested. Antibodies were captured at 35 nM concentration by a 1 min injection at 5 μl/min. The flow rate was set to 100 μl/min.
Analytes in solution were injected at different concentration steps of 0 nM, 1.1 nM, 3.7 nM, 11.1 nM, 33.1 nM and 90 nM for 3.5 min. The dissociation was monitored for 15 min. Where possible, kinetic signatures were evaluated according to a Langmuir fit.

MR (Molar Ratio) (TtSlyDcas): 0
binding result (TtSlyDcas): no binding (tested: up to 90 nM)
Kd (HER3 ECD-HRG complex): 2.8 nM
MR (Molar Ratio) (HER3 ECD-HRG complex): 0.8
koff (HER3 ECD-HRG complex): 0.00029 s⁻¹
kon (HER3 ECD-HRG complex): 100000 M⁻¹ s⁻¹
Kd (HER4 ECD-HRG complex): 8.1 nM
MR (Molar Ratio) (HER4 ECD-HRG complex): 0.8
koff (HER4 ECD-HRG complex): 0.00081 s⁻¹
kon (HER4 ECD-HRG complex): 99000 M⁻¹ s⁻¹
binding result [1]: no binding (tested: up to 90 nM)
Kd [2]: 1.1 nM
MR (Molar Ratio) [2]: 0.1
koff [2]: 0.00011 s⁻¹
kon [2]: 96000 M⁻¹ s⁻¹
Kd (TtSlyDcys-Her3): 7.8 nM
MR (Molar Ratio) (TtSlyDcys-Her3): 1.9
koff (TtSlyDcys-Her3): 0.00024 s⁻¹
kon (TtSlyDcys-Her3): 30000 M⁻¹ s⁻¹
Kd [3]: 51 nM
MR (Molar Ratio) [3]: 0.1
koff [3]: 0.00082 s⁻¹
kon [3]: 16000 M⁻¹ s⁻¹
Kd [4]: 150 nM
koff [4]: 0.001 s⁻¹
kon [4]: 6700 M⁻¹ s⁻¹
B1: anti-HER3/HER4 antibody M-05-74 (antibody, V domains shown)
VH: QVQLQQSGAELAKPGASVKMSCKTSGYTLTDYWIHWVKQRPGQGLEWIGYINPYTGYTESNQKFKDKATLTADKSSNTAYIQLSSLTSEDSAVYYCARPYYYGDYWGQGTTLTVSS
VL: QIVLTQSPAIMSASPGERVTITCSASSSVSYMHWFQQKPGTSPKLLIYSTSNLASGVPARFSGSGSGTSYSLTISRMEAEDAATYYCQQRSSYPFTFGSGTKLEIK
notes: murine monoclonal IgG from hybridoma (supernatant or purified), bivalent; also called M-074; M-5-74
